Source: patent US20240317871A1 (IMMUNOMIC THERAPEUTICS, published 2024)
Substitutions are numbered along the chain they refer to.

B1: Ab_065 (H5S20-39A29A) (antibody, V domains shown)
VH: EVKLVESGGGLVKPGGSLKLSCAASGFTFSSYAMSWVRQTPETRLEWVASISSGGNTYYPDSVKGRFTISRDNVRNILYLQMSSLRSEDTAMYFCTRGGYGSSHVIWGQGTTLTVSS
VL: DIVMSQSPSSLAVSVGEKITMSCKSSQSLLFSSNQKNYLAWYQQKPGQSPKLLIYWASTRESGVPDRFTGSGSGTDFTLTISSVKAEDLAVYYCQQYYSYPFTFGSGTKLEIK
notes: also called Ab_65
B2: Ab_063 (H5S20-4A4A) (antibody, V domains shown)
VH: B1 VH with V12M, N56S, H104Y
VL: DIVMSQSPSSLAVSVGEKITMSCKSSQSLLFSSIQKNYLAWYQQKPGQSPKLLVYWASTRESGVPDRFTGSGSGTDFTLTISSVKAEDLAVYYCQQYYSYPFTFGSGTKLEIK
notes: also called Ab_159; Ab_63
B3: Ab_066 (H5S20-1A1A) (antibody, V domains shown)
VH: B1 VH with N56D, Y58F, P60R, G65A, N73D, N76D, H104F
VL: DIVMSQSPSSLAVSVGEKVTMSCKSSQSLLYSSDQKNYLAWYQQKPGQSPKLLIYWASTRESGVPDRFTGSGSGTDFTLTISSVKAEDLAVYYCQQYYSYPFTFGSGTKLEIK
notes: also called Ab_66
B4: Ab_064 (H5S20-6A6A) (antibody, V domains shown)
VH: B1 VH with Y32F, T43K, S62N, V74A, R75G, F94Y, T96A, H104Y
VL: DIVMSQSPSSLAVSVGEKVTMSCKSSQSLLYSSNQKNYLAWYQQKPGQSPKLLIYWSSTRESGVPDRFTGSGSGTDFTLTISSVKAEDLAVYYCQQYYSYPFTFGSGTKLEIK
notes: also called Ab_64
B5: Ab_001 (H5S14-1A1A) (antibody, V domains shown)
VH: DVKLVESGGGLVKPGGSLKLSCAASVFTFSRYTMSWVRQTPEKRLEWVATISSGGSYTYYPDSVKGRFTISRDNAKNTLYLQMSSLKSEDTAIYYCTRGGDGLFDYWGQGTALTVSS
VL: DVQITQSPSYLAASPGETITINCRASKSISKYLAWYQEKPGKTNQLLIYSGSTLQSGIPSRFSGSGSGTDFTLTISSLEPEDFAMYYCQQHNEYPWTFGGGTKLEIK
notes: also called Ab_1
B6: Ab_011 (H5S14-12A11A) (antibody, V domains shown)
VH: QVQLQQSGAELVRPGTSVKISCKASGNIFTNSWLGWIKQRPGHGLEWIGDVYPGGGYNKYNEKFKGKATLTIDTSASTAYMQLSRLTSEDSGVYFCAGAMDYWGQGTSVTVSS
VL: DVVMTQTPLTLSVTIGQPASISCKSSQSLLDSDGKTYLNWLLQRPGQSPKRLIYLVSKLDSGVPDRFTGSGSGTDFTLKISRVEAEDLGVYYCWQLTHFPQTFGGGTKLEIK
notes: also called Ab_11
B7: Ab_069 (H5S20-43A19B) (antibody, V domains shown)
VH: QVQLQQSGAELVRPGTSVMISCKASGYTFTNYWLGWVKQRPGHGLEWIGDIYPGGGYIIYNEKFKGKATLTVDSSATTAYMQLSSLTSEDSAVYFCAGAMDYWGQGTSVTVSS
VL: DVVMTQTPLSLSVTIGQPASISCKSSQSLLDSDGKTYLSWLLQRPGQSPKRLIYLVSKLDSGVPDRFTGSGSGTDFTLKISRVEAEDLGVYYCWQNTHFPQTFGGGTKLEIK
notes: also called Ab_155; Ab_69
B8: Ab_068 (H5S20-24A19A) (antibody, V domains shown)
VH: B7 VH with M19K, M81I, S84N, Y102H
VL: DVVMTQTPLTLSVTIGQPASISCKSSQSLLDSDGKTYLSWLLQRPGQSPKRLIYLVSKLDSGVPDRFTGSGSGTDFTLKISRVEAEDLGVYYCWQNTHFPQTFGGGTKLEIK
notes: also called Ab_68
B9: Ab_046 (H5S15-35A31A) (antibody, V domains shown)
VH: B6 VH with N27Y, I28T, I37V, V51I, I72A, A76S, S84G, R85S, G92A
VL: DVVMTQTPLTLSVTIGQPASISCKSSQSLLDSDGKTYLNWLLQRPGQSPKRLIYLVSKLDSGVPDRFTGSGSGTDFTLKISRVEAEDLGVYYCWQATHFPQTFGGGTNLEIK
notes: also called Ab_46
B10: Ab_070 (H5S20-7A7A) (antibody, V domains shown)
VH: B6 VH with N27Y, I28R, V51I, K65R, I72A, A76S, R85S, G92A, Y102S
VL: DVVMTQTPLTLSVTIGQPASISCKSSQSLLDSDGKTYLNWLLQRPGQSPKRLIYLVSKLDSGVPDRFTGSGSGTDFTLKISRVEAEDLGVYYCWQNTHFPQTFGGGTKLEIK
notes: also called Ab_70
B11: Ab_012 (H5S14-13A11A) (antibody, V domains shown)
VH: B6 VH with N27Y, G92A
VL: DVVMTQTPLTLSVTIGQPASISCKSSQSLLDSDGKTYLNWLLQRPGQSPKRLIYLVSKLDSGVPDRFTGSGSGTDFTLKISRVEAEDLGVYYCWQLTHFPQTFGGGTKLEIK
notes: also called Ab_12
B12: Ab_013 (H5S14-14A11A) (antibody, V domains shown)
VH: B6 VH with N27Y, S32Y, I72V, G92A
VL: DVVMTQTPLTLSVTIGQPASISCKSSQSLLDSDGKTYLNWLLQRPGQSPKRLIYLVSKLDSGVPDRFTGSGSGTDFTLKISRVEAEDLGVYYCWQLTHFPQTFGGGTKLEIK
notes: also called Ab_13
B13: Ab_045 (H5S15-31A12C) (antibody, V domains shown)
VH: B6 VH with N27Y, I28A, I37V, V51I, I72A, A76S, R85S, G92A, M100L
VL: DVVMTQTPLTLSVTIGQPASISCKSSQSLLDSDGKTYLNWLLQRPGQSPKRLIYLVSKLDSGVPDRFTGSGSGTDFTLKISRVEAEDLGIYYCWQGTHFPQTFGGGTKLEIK
notes: also called Ab_45
B14: Ab_067 (H5S20-7B7B) (antibody, V domains shown)
VH: QVQLQQSGAELIRPGTSVKISCKASGYRFTNSWLGWIKLRPGHGLEWIGDIYPGGGYNKYNEKFRGKATLTADTSSSTAYMQLSSLTSEDSAVYFCAGAMDSWGQGTSVTVSS
VL: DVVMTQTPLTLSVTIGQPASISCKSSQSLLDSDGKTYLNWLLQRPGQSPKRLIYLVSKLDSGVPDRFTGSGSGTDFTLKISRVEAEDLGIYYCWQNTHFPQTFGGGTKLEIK
notes: also called Ab_67
B15: Ab_050 (H5S19-9A11A) (antibody, V domains shown)
VH: QVQLKQSGPGLVQPSQSLSITCTVSGFSLTTYGVHWVRQSPGKGLEWLGVIWSGGSTDYNAAFISRLSISKDNSKSQVFFKMNSLQANDTAIYYCARRGYGSPYYYAMDYWGQGTSVTVSS
VL: EIVLTQSPALMAASPGEKVTITCSVSSSISSSNLHWYQQKSETSPKPWIYGTSNLASGVPVRFSGSGSGTSYSLTISSMEAEDAATYYCQQWSSYPLTFGAGTKLELK
notes: also called Ab_50
B16: Ab_051 (H5S19-4A6A) (antibody, V domains shown)
VH: QVQLKESGPGLVAPSQSLSITCTVSGFSLTGYGVNWVRQPPGKGLEWLGMIWGDGNTDYNSALKSRLSISKDNSKSQVFLKMNSLQTDDTARYYCARSYGSYWGQGTLVTVSA
VL: QIVLTQSPAIMSASPGEKVTMTCSASSSVSYMYWYQQKPGSSPRLLIYDTSNLASGVPVRFSGSGSGTSYSLTISRMEAEDAATYYCQQWSSYPFTFGSGTKLEIK
notes: also called Ab_51
B17: Ab_030 (H5S15-18A17A) (antibody, V domains shown)
VH: QVQLQQSGAELVRPGTSVKMSCKAAGYTFTNSWIGWVKQRPGHGLEWIGDIYPGGGYTNYYEKFKVKATLTADTSSSTAYMQLSSLTSEDSAIYYCASSGAYWGQGTTLTVSS
VL: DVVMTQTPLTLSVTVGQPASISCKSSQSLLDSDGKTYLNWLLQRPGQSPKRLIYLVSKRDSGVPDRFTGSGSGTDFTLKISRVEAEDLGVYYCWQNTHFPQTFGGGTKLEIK
notes: also called Ab_30
B18: Ab_031 (H5S15-8A17A) (antibody, V domains shown)
VH: B17 VH with N31D, Y61N, V66G, S85R
VL: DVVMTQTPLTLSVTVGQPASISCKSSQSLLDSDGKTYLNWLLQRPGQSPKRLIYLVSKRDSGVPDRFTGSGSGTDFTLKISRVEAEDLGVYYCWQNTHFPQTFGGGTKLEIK
notes: also called Ab_31

Target: T1, murine HVEM (murine, UniProt Q80WM9 39-206, limits assumed)
T1 construct: also called Mouse
T1 sequence (looked up): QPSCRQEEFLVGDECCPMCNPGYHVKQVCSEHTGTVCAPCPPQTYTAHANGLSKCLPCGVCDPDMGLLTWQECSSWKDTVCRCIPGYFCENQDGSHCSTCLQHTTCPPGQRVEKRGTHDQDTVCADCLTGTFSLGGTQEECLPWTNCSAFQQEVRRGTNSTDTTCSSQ
Test: ELISA

| Binder | ELISA signal |
| --- | --- |
| B1 | 0.044 |
| B2 | 0.043 |
| B3 | 0.044 |
| B4 | 0.044 |
| B5 | 0.057 |
| B6 | 0.049 |
| B7 | 0.054 |
| B8 | 0.044 |
| B9 | 0.042 |
| B10 | 0.062 |
| B11 | 0.044 |
| B12 | 0.048 |
| B13 | 0.042 |
| B14 | 0.047 |
| B15 | 0.047 |
| B16 | 0.043 |
| B17 | 0.046 |
| B18 | 0.042 |

Target: T2, human HVEM (human, UniProt Q92956 39-202, limits assumed)
T2 sequence (looked up): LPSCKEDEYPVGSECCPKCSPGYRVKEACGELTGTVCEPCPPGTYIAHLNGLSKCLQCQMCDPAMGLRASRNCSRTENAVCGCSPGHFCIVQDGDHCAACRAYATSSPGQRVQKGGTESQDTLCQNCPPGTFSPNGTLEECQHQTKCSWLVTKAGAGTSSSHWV
Test: ELISA

| Binder | ELISA signal |
| --- | --- |
| B1 | 3.24 |
| B2 | 3.1 |
| B3 | 3.28 |
| B4 | 3.07 |
| B5 | 3.3 |
| B6 | 3.16 |
| B7 | 3.13 |
| B8 | 3.03 |
| B9 | 2.94 |
| B10 | 3.23 |
| B11 | 3.08 |
| B12 | 3 |
| B13 | 3.08 |
| B14 | 3.05 |
| B15 | 3.02 |
| B16 | 3.18 |
| B17 | 3.08 |
| B18 | 3.08 |

Target: T3, cynomolgus monkey HVEM (cynomolgus monkey, UniProt A0A2K5W0R1 39-203)
T3 sequence: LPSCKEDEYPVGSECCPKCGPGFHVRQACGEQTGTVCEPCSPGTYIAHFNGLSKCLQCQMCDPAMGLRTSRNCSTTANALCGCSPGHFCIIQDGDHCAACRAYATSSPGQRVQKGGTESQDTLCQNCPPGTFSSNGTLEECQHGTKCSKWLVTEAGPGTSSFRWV
Test: ELISA

| Binder | ELISA signal |
| --- | --- |
| B1 | 1.52 |
| B2 | 3.13 |
| B3 | 0.883 |
| B4 | 0.987 |
| B5 | 0.072 |
| B6 | 2.97 |
| B7 | 3.04 |
| B8 | 3.04 |
| B9 | 3.03 |
| B10 | 3.1 |
| B11 | 2.89 |
| B12 | 2.74 |
| B13 | 2.9 |
| B14 | 3.04 |
| B15 | 0.094 |
| B16 | 0.563 |
| B17 | 2.98 |
| B18 | 3.06 |

Target: T4, Human HEVM recombinant protein (Sino Biological, 10334-H02H) (human, UniProt Q92956 39-202)
T4 construct: construct known only by catalogue number; also called HVEM; human HVEM
T4 sequence (looked up): T2 sequence (looked up)
Test: competition ELISA, competitor LIGHT-His
Method: (§1) The competitive activity of HVEM antibody to BTLA or LIGHT was evaluated with ELISA-based competitive assay. Briefly Human HEVM recombinant protein (Sino Biological, 10334-H02H, 4 ug/ml, 100 ul/well) was coated to ELISA plate (Thermo Scientific, 469949, 4C overnight). A pre-mixture of HVEM antibody clone with seral dilution and 400 nM BTLA-His (R&D systems, 9235-BT-050) or LIGHT-His (SinoBiological, 10386-H07H) recombinant protein was made and added to the ELISA plate after blocking with 3% BSA (200 ul/well, RT 2 Hr) for 1 Hr at RT. The serial dilutions of HVEM antibody clone involve 7 different concentrations, with a 3-fold dilution performed start from 100 nM for BTLA or 325 nM for LIGHT competitive assay. The concentration was the final concentration. Plate was washed with PBST; diluted HRP-anti-His (Biolegend, 652504, 1:1000) with PBS containing 5% FBS was added 100 ul per well for 1 Hr at RT. TMB substrate (KPL, 52-00-00) 100 ul per well after washing and incubate at room temperature for 15 minutes; then stop the development by adding 100 ul stop solution (KPL, 50-85-06). Plate was read at 450 nm. The IC50 was calculated using GraphPad Prism software (GraphPad Software, Inc. San Diego, CA, USA).

| Binder | IC50 [nM] |
| --- | --- |
| B1 | 8 |
| B2 | 5.7 |
| B3 | 10.4 |
| B4 | 8.7 |
| B5 | 715 |
| B6 | 20.5 |
| B7 | 22.3 |
| B8 | 20.5 |
| B9 | 27.2 |
| B10 | 17.8 |
| B11 | 20.9 |
| B12 | 28.1 |
| B13 | 31 |
| B14 | 13.6 |
| B15 | 117 |
| B16 | 18.6 |
| B17 | 21.9 |
| B18 | 22 |

Target: T5, His-tagged human HVEM (human, UniProt Q92956 39-202, limits assumed)
T5 construct: Analyte of the BLI assay, 200 nM in PBS; not shown: His tag
T5 sequence (looked up): T2 sequence (looked up)
Test: BLI OctetRed96, mAb captured, 200 nM His-HVEM
How it was run: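 Kinetics (kon, koff, KD) were fitted from association in 200 nM His-HVEM in PBS and dissociation in PBS buffer. The mouse antibodies had been captured directly from culture supernatant onto anti-mouse IgG Fc sensors.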

| Binder | Kd [nM] | koff [s⁻¹] | kon [M⁻¹ s⁻¹] |
| --- | --- | --- | --- |
| B1 | 14.9 | 0.0049 | 330000 |
| B2 | 4.09 | 0.00216 | 528000 |
| B3 | 9.59 | 0.00247 | 258000 |
| B4 | 10.7 | 0.00355 | 333000 |
| B5 | 550 | 0.154 | 280000 |
| B6 | 2.78 | 0.00107 | 385000 |
| B7 | 2.97 | 0.000803 | 271000 |
| B8 | 5.99 | 0.00192 | 320000 |
| B9 | 4.59 | 0.00169 | 368000 |
| B10 | 2.33 | 0.00102 | 438000 |
| B11 | 3.22 | 0.00121 | 375000 |
| B12 | 4.39 | 0.00149 | 340000 |
| B13 | 7.32 | 0.00265 | 362000 |
| B14 | 2.65 | 0.00134 | 505000 |
| B15 | 42.2 | 0.00481 | 114000 |
| B16 | 28.8 | 0.0143 | 496000 |
| B17 | 10.3 | 0.00419 | 405000 |
| B18 | 11 | 0.00321 | 291000 |

Target: T4, Human HEVM recombinant protein (Sino …)
Test: competition ELISA, competitor BTLA-His
Method: as §1

| Binder | IC50 [nM] |
| --- | --- |
| B1 | 1.7 |
| B2 | 2.2 |
| B3 | 1.5 |
| B4 | 1.5 |
| B5 | 2.2 |
| B15 | 3 |
| B16 | 1.3 |
